Measured values: PMC7585440, “Sclerostin inhibits Wnt signaling through tandem interaction with two LRP6 ectodomains” (Nature Communications, 2020)

Experiments:
[1] = target: T1, human LRP6 E1E2 with a C-terminal 10× His tag, labeled with the dye NT-647 (human, UniProt O75581 21-630, dye NT-647 (Monolith NT Protein Labeling kit)); experiment: MST; LRP6 E1E2 or E1 labeled with NT-647 at ~5 nM, unlabeled SOST proteins or peptides titrated; 20 mM Tris-Cl pH 7.0, 200 mM NaCl, 0.5 mg/ml BSA, 0.05% Tween 20; 22 °C; Monolith NT.115 Pico; conditions: both partners purified
T1 construct: Low-density lipoprotein receptor-related protein 6 (LRP6), human, ectodomains E1 and E2; the limits P21-P630 are printed for the co-expression construct; the MST construct was cloned into another vector (pAcGP67A); also called Labeled LRP6 E1E2; source: High Five insect cells (pAcGP67A), purified (Ni-NTA, HiTrapQ, SEC), no tag cleavage; not shown: His10, C-terminal, kept
T1 sequence (looked up): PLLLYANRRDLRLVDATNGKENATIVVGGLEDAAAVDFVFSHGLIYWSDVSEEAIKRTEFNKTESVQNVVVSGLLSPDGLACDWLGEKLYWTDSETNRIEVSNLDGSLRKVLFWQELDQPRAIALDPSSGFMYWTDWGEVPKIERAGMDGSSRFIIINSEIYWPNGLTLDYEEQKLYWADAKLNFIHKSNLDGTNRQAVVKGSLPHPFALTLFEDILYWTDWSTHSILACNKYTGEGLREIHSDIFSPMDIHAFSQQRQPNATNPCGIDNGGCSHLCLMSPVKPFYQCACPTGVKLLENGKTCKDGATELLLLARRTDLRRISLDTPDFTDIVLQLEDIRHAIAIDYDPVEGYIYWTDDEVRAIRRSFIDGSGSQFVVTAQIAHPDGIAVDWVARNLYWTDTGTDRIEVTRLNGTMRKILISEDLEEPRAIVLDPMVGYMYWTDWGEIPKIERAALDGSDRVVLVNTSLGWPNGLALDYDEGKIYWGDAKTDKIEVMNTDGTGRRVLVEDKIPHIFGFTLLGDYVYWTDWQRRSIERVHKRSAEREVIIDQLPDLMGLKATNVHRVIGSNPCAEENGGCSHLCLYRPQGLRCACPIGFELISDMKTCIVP

[2] = target: T2, human LRP6 E1E2 (P21–P630) with a C-terminal 10× His tag (human, UniProt O75581 21-630); experiment: SEC; fluorescence-SEC: purified LRP6 E1E2–Smo-SOST complex injected at 1.5, 1, 0.5 or 0.1 µM on Superdex 200 Increase 10/300 GL; 20 mM Tris pH 7.0, 200 mM NaCl; intrinsic tryptophan fluorescence; approximate KD; conditions: both partners purified
T2 construct: Low-density lipoprotein receptor-related protein 6 (LRP6), human, ectodomains E1 and E2, residues P21-P630; Unlabelled form: crystal, SEC-MALS and fluorescence-SEC; An anti-His-tag antibody was used for the western blots of the fluorescence-SEC experiment; also called LRP6 ectodomains 1 and 2; source: High Five insect cells (baculovirus), secreted, purified (Ni-NTA, HiTrapQ, SEC); co-expressed …
T2 sequence (looked up): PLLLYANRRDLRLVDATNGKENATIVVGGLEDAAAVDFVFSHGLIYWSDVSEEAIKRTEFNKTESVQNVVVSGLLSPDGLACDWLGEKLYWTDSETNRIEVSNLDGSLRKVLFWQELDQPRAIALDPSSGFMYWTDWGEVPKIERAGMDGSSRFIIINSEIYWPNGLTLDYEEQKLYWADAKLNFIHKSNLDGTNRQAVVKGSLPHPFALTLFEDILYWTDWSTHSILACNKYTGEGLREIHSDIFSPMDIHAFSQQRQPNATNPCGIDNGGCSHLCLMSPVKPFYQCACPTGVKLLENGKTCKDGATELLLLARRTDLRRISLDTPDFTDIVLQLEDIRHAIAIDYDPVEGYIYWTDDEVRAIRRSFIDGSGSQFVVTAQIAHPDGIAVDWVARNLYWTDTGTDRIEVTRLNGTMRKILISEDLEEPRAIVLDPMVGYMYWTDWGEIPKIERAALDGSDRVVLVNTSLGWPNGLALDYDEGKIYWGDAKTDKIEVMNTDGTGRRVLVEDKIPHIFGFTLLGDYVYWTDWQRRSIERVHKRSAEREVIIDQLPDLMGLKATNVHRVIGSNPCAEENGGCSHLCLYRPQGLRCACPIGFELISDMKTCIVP

- Kd [1]: 170 nM
- Kd [2]: ~50 nM
B1: human WT SOST with an N-terminal His6-SUMO tag (natural protein, UniProt Q9BQB4 24-213, looked up)
chain: QGWQAFKNDATEIIPELGEYPEPPPELENNKTMNRAENGGRPPHHPFETKDVSEYSCRELHFTRYVTDGPCRSAKPVTELVCSGQCGPARLLPNAIGRGKWWRPSGPDFRCIPDRYRAQRVQLLCPGGEAPRARKVRLVASCKCKRLTRFHNQSELKDFGTEAARPQKGRKPRPRARSAKANQAELENAY
notes: Sclerostin (SOST), human, wild type; Probably residues 24-213 (the truncated constructs begin at Q24 and the protein ends at Y213); Purified WT SOST ran as a doublet that PNGase F turned into one band (N175 likely glycosylated in part); also called Smo-SOST; SOST WT; source: High Five insect cells (pAcGP67A), purified (Ni-NTA, HiTrapQ, SEC), no tag cleavage; not shown: His6, N-terminal, kept; …
